# From PMC7145618
# Read-outs that look alike come from different tables or passages of the source.
# B1: internally melted duplex (dsDNA)
# DNA 1: GGGCGGCGGTTTTTTTTTTGCGGGGCGG
# DNA 2: CCGCCCCGCTTTTTTTTTTCCGCCGCCC
# B2: 30-nt ssDNA (ssDNA)
# DNA: TGAGTTTTTTTCATTTTTTGCGTAAATTTC
# Columns and labels:
# [1] = molecular target: Drc (ssDNA-binding RNA Polymerase Cofactor), Pseudomonas virus LUZ7 gp14 (Pseudomonas virus LUZ7); test: crystal structure
# [2] = molecular target: Drc(Δ67–99) (Pseudomonas virus LUZ7); test: SEC
# Drc (gp14) [3] = molecular target: T1, Drc (gp14) (Pseudomonas phage LUZ7, UniProt C8ZKB3); test: EMSA
# T1 sequence: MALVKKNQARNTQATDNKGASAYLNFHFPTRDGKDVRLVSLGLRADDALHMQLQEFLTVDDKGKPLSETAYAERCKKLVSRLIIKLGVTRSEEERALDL
# Drc (gp14) [4] = molecular target: T1, Drc (gp14); test: EMSA; remark: listed apart in the source
molecule,measurement,setting,value
"Drc (ssDNA-binding RNA Polymerase Cofactor), Pseudomonas virus LUZ7 gp14 (natural protein)",stoichiometry N,[1],2
Drc(Δ67–99) (domain or fragment),stoichiometry N,[2],2
B1,binding result,Drc (gp14) [3],binds
B2,binding result,Drc (gp14) [4],binds
